Experiments:
c-Src SH2 = experiment: SH2 binding enrichment of the phosphorylated peptide, bacterial display (enrichment ratio); higher = better substrate or ligand; peptides without Tyr show the background
SHP2-C SH2 = experiment: as above
Grb2 SH2 = Grb2 SH2 (UniProt P62993); experiment: as above
Fer (mouse) = experiment: phosphorylation enrichment, bacterial display (enrichment ratio); higher = better substrate or ligand; peptides without Tyr show the background
c-Src = experiment: as above
Fes = Fes (UniProt P07332); experiment: as above
MERTK = MERTK (UniProt Q12866); experiment: as above
EPHB1 = EPHB1 (UniProt P54762); experiment: as above
FGFR3 = FGFR3 (UniProt P22607); experiment: as above
Fyn = Fyn (UniProt P06241); experiment: as above
EPHB2 = EPHB2 (UniProt P29323); experiment: as above
AncSZ = experiment: as above
Hck = Hck (UniProt P08631); experiment: as above
c-Abl (mouse) = experiment: as above
Jak2 = Jak2 (UniProt O60674); experiment: as above
FGFR1 = FGFR1 (UniProt P11362); experiment: as above
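For SH2 binding enrichment of the phosphorylated peptide, bacterial display in this document: peptide library displayed on the E. coli surface as eCPX fusions, selected cells deep-sequenced, score is each peptide's frequency after selection divided by its frequency in the input.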
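For phosphorylation enrichment, bacterial display in this document: 11-residue human phosphosite peptides and single-mutation variants displayed on the E. coli surface, counted by deep sequencing, each peptide's frequency after selection divided by its frequency in the unselected input library; frequency after pTyr selection over input frequency; kinase dosed for 20-30% of maximal phosphorylation in three min.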

Sequence of EPHB1 (P54762 whole entry, looked up): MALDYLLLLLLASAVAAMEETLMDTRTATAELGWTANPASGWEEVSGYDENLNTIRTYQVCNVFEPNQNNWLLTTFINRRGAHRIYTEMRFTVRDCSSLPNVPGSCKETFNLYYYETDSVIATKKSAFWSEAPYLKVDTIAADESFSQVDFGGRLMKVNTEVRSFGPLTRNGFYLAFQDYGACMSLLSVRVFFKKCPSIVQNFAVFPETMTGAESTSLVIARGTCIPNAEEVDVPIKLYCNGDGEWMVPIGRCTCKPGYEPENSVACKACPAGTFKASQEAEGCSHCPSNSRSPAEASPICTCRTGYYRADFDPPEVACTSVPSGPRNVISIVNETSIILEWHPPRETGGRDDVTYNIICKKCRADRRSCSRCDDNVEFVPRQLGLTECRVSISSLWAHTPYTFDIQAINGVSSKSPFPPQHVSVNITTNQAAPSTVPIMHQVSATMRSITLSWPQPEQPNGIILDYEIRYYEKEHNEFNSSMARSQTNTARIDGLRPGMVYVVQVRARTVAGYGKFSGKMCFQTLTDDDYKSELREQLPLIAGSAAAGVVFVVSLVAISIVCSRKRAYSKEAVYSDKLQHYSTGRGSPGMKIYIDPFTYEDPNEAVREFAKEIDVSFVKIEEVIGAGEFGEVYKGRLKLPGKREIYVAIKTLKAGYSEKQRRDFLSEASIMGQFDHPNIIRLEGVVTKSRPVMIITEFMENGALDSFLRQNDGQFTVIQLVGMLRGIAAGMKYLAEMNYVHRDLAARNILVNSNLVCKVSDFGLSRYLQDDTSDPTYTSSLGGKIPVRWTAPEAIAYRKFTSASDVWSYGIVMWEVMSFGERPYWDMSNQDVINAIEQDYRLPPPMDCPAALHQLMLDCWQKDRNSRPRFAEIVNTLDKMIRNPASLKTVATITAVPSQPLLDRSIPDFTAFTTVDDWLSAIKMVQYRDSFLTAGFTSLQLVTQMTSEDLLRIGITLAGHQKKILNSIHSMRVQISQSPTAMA
Sequence of Jak2 (O60674 whole entry, looked up): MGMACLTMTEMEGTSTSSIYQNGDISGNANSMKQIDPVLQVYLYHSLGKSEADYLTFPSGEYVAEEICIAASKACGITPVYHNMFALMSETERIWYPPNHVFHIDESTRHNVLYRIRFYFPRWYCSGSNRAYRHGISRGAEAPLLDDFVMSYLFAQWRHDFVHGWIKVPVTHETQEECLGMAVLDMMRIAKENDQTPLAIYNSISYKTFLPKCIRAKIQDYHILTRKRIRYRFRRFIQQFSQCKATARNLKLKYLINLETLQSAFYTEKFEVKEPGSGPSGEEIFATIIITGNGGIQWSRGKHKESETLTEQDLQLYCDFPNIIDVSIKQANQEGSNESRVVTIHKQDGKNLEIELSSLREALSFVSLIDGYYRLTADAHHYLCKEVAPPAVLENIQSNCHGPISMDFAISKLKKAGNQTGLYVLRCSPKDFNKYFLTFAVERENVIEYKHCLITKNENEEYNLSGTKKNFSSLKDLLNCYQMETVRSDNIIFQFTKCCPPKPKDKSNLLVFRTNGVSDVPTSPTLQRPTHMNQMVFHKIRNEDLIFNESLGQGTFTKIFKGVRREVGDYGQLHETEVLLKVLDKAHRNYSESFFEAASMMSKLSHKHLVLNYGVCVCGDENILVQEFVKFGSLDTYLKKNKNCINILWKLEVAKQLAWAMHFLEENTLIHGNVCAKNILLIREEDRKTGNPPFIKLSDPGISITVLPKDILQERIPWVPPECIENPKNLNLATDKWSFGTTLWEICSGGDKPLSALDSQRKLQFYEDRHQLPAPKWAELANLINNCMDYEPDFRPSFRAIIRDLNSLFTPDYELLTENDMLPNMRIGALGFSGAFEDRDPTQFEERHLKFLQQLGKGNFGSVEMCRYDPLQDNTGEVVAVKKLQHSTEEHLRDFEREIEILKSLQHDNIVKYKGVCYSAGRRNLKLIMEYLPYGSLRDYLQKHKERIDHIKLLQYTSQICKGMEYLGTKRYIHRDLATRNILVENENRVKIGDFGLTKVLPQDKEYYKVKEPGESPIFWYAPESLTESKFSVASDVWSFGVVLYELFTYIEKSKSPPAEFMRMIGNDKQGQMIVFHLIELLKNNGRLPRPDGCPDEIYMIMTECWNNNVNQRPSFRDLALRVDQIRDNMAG
Sequence of Fyn (P06241 whole entry, looked up): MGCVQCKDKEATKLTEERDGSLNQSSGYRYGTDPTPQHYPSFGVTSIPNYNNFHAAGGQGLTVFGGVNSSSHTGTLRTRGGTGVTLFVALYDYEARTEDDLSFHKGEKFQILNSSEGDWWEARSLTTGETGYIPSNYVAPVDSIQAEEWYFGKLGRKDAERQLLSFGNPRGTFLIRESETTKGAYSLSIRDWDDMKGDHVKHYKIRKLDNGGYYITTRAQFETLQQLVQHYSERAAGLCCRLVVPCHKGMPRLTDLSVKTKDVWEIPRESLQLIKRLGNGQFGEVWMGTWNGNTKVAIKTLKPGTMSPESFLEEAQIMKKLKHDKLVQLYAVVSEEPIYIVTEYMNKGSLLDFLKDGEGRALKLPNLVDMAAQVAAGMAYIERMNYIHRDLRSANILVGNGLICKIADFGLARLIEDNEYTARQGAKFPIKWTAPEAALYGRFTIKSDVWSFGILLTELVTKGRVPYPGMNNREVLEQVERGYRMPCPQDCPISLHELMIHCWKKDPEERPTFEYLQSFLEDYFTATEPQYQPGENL
Sequence of MERTK (Q12866 whole entry, looked up): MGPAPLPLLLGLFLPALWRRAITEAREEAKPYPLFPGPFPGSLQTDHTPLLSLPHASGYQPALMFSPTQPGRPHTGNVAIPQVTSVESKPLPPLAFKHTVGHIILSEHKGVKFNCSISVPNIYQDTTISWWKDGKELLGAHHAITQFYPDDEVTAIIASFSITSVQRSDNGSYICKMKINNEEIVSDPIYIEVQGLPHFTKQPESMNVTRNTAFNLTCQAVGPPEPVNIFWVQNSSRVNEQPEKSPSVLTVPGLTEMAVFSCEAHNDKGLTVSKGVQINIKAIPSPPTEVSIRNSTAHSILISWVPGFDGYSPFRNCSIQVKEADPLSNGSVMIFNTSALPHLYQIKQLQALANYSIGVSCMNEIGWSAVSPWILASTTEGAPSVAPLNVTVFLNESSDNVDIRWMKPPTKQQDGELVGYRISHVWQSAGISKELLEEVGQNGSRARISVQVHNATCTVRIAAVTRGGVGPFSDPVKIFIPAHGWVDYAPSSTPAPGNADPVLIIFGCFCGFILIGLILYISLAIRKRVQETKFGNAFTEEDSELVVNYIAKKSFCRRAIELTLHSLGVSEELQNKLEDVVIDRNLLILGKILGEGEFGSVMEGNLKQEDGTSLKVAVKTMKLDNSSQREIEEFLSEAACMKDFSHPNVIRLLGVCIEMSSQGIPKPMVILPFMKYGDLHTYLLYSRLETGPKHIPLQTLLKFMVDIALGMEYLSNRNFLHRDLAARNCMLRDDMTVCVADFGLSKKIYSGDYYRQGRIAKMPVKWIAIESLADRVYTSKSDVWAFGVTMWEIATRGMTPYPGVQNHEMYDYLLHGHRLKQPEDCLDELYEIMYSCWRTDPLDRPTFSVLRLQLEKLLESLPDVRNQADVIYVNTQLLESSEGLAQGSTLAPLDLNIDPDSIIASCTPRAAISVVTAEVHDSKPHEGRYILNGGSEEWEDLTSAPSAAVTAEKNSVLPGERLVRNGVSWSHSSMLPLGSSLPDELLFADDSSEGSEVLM
Sequence of EPHB2 (P29323 whole entry, looked up): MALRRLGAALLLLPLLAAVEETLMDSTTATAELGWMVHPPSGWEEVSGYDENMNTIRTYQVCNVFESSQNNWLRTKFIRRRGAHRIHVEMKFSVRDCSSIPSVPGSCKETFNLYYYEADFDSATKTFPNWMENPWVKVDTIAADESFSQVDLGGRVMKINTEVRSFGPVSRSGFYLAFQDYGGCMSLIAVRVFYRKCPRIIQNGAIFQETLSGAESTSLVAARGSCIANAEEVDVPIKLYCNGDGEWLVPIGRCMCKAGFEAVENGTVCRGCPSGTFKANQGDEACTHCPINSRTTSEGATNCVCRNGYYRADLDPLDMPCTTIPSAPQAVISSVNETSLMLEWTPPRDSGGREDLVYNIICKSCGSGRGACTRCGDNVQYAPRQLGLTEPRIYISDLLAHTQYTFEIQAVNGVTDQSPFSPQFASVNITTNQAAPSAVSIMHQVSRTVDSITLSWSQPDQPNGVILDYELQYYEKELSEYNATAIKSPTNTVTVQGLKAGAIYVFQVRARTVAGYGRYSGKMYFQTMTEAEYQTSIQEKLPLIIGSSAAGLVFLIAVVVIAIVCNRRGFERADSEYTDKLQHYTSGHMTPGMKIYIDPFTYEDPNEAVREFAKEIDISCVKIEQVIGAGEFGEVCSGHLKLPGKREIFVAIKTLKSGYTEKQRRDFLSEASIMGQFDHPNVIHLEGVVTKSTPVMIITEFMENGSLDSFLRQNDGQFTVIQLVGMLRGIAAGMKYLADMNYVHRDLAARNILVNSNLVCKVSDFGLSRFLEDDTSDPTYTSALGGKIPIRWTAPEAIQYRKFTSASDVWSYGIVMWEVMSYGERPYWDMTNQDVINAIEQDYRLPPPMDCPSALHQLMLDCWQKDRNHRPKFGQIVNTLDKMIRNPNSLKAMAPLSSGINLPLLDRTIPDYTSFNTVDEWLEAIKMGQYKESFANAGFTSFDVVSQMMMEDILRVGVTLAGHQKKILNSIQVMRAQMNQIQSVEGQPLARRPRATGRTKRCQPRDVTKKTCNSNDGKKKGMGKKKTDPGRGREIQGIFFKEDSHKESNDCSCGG

SH2 binding enrichment (c-Src SH2)	SH2 binding enrichment (SHP2-C SH2)	SH2 binding enrichment (Grb2 SH2)	Sequence	phosphorylation enrichment (Fer (mouse))	phosphorylation enrichment (c-Src)	phosphorylation enrichment (Fes)	phosphorylation enrichment (MERTK)	phosphorylation enrichment (EPHB1)	phosphorylation enrichment (FGFR3)	phosphorylation enrichment (Fyn)	phosphorylation enrichment (EPHB2)	phosphorylation enrichment (AncSZ)	phosphorylation enrichment (Hck)	phosphorylation enrichment (c-Abl (mouse))	phosphorylation enrichment (Jak2)	phosphorylation enrichment (FGFR1)
0.42	0.499	0.774	VGNAAYQAGPL [STK36_Y1181]	0.392	0.429	0.556	0.386	0.358	0.472	0.458	0.437	0.553	0.378	0.531	0.592	0.407
0.902	1.43	1.6	LVFIKYLPEWT [PSEN1_Y240]	0.744	0.4	1.92	0.769	0.898	1.27	0.361	0.734	1.78	0.555	1.11	1.97	0.615
0.753	0.47	0.747	PADRAYSWYQH [NDST1_Y711]	15.8	1.77	1.61	2.86	1.19	1.16	0.617	0.817	0.98	0.888	1.58	1.68	1.33
1.14	0.441	0.81	RSIGEYDVLRA [PRKDC_Y2936_G2941A]	0.446	1.17	1.31	0.817	0.944	0.818	1.06	1.13	0.887	7.58	1.87	0.703	0.772
1.26	0.957	0.987	GLIPAYHRVIV [NMNAT1_Y64_M69V]	0.44	0.371	0.933	0.437	0.515	0.639	0.458	0.453	0.804	0.481	0.622	1.15	0.627
3.37	0.767	0.78	LRRQDYQEILD [SLC35G2_Y403_K400R]	0.509	0.376	1.58	0.622	0.838	0.783	0.492	0.898	1.35	0.352	0.621	1.06	0.727
0.608	0.726	1.13	SVVEPYEPPEV [TP53_Y220_V218E]	0.462	0.4	1.1	0.442	0.541	0.654	0.741	0.533	1.29	0.472	0.601	0.985	0.521
0.604	1.08	1.19	NPQKSYFIHLF [WAS_Y83_R86H_YF]	0.449	0.399	1.32	0.384	0.644	0.73	0.396	0.512	0.93	0.431	0.77	1.29	0.475
0.347	0.526	0.579	NGRTGDVLQPE [PLCG2_Y1036_Y1036D]	0.464	0.428	1.05	0.454	0.598	0.669	0.39	0.468	0.971	0.496	0.777	0.903	0.404

Second part, the sequence before the results:

Sequence	SH2 binding enrichment (c-Src SH2)	SH2 binding enrichment (SHP2-C SH2)	SH2 binding enrichment (Grb2 SH2)	phosphorylation enrichment (Fer (mouse))	phosphorylation enrichment (c-Src)	phosphorylation enrichment (Fes)	phosphorylation enrichment (MERTK)	phosphorylation enrichment (EPHB1)	phosphorylation enrichment (FGFR3)	phosphorylation enrichment (Fyn)	phosphorylation enrichment (EPHB2)	phosphorylation enrichment (AncSZ)	phosphorylation enrichment (Hck)	phosphorylation enrichment (c-Abl (mouse))	phosphorylation enrichment (Jak2)	phosphorylation enrichment (FGFR1)
ADRAAYLQNLN [MYH1_Y389_K386R]	0.403	0.552	0.719	0.364	0.42	0.699	0.362	0.563	0.441	0.336	0.338	0.604	0.334	0.679	0.604	0.629
RRNTCYASIAK [ACADM_Y353_Y352C]	3.02	7.11	0.784	0.424	0.279	0.467	0.332	0.287	0.347	0.4	0.332	0.369	0.391	0.333	0.294	0.272
LLREWYMIFSR [HUWE1_Y4066_I4069F]	0.852	1.05	1.21	0.943	1.45	2	0.932	1.07	1.14	0.755	1.57	2.11	0.915	1.8	2.17	0.713
VGAKTYKMSMA [CPS1_Y309_A304V]	0.408	0.421	0.725	0.268	0.498	0.524	0.428	0.437	0.382	0.399	0.326	0.645	0.307	0.57	0.511	0.367
VPANRYDLLCL [FARSB_Y72]	3.03	0.907	0.831	0.486	0.487	0.985	0.514	0.58	0.725	0.469	0.654	0.808	0.458	0.773	0.873	0.493
EKNANYKEGTY [CLRN1_Y171_I168N]	0.538	0.774	0.963	0.363	0.426	0.617	0.372	0.378	0.4	0.403	0.387	0.517	0.356	0.451	0.575	0.383
FGMSSYITRED [FNDC3B_Y180_T179S_YF]	0.501	0.937	0.715	0.544	0.442	0.891	0.527	0.594	0.693	0.59	0.653	0.84	0.536	0.579	0.559	0.556
VVGMLYVGRLP [LAMA2_Y2886_G2889R]	0.561	0.987	0.926	0.552	0.422	1.04	0.426	0.481	0.602	0.442	0.643	1.22	0.455	0.654	0.98	0.647
